B1: B42-NIF-1 (full-length), B42 activation domain fusion expressed from pJG4-5 in yeast (other, not shown: large carriers)
chain: MEENEVESSSDAAPGPGRPEEPSESGLGVGTSEAVSADSSDAAAAPGQAEADDSGVGQSSDRGSRSQEEVSESSSSADPLPNSYLPDSSSVSHGPVAGVTGGPPALVHSSALPDPNMLVSDCTASSSDLGSAIDKIIESTIGPDLIQNCITVTSAEDGGAETTRYLILQGPDDGAPMTSPMSSSTLAHSLAAIEALADGPTSTSTCLEAQGGPSSPVQLPPASGAEEPDLQSLEAMMEVVVVQQFKCKMCQYRSSTKATLLRHMRERHFRPVAAAAAAAGKKGRLRKWSTSTKSQEEEGPEEEDDDDIVDAGAIDDLEEDSDYNPAEDEPRGRQLRLQRPTPSTPRPRRRPGRPRKLPRLEISDLPDGVEGEPLVSSQSGQSPPEPQDPEAPSSSGPGHLVAMGKVSRTPVEAGVSQSDAENAAPSCPDEHDTLPRRRGRPSRRFLGKKYRKYYYKSPKPLLRPFLCRICGSRFLSHEDLRFHVNSHEAGDPQLFKCLQCSYRSRRWSSLKEHMFNHVGSKPYKCDECSYTSVYRKDVIRHAAVHSRDRKKRPDPTPKLSSFPCPVCGRVYPMQKRLTQHMKTHSTEKPHMCDKCGKSFKKRYTFKMHLLTHIQAVANRRFKCEFCEFVCEDKKALLNHQLSHVSDKPFKCSFCPYRTFREDFLLSHVAVKHTGAKPFACEYCHFSTRHKKNLRLHVRCRHASSFEEWGRRHPEEPPSRRRPFFSLQQIEELKQQHSAAPGPPPSSPGPPEIPPEATTFQSSEAPSLLCSDTLGGATIIYQQGAEESTAMATQTALDLLLNMSAQRELGGTALQVAVVKSEDVEAGLASPGGQPSPEGATPQVVTLHVAEPGGGAAAESQLGPPDLPQITLAPGPFGGTGYSVITAPPMEEGTSAPGTPYSEEPAGEAAQAVVVSDTLKEAGTHYIMATDGTQLHHIELTADGSISFPSPDALASGAKWPLLQCGGLPRDGPEPPSPAKTHCVGDSQSSASSPPATSKALGLAVPPSPPSAATAASKKFSCKICAEAFPGRAEMESHKRAHAGPGAFKCPDCPFSARQWPEVRAHMAQHSSLRPHQCSQCSFASKNKKDLRRHMLTHTKEKPFACHLCGQRFNRNGHLKFHIQRLHSPDGRKSGTPTARAPTQTPTQTIILNSDDETLATLHTALQSSHGVLGPERLQQALSQEHIIVAQEQTVTNQEEAAYIQEITTADGQTVQHLVTSDNQVQYIISQDGVQHLLPQEYVVVPEGHHIQVQEGQITHIQYEQGAPFLQESQIQYVPVSPGQQLVTQAQLEAAAHSAVTAVADAAMAQAQGLFGTDETVPEHIQQLQHQGIEYDVITLADD
notes: also called NIF-1 expressed as a B42-fusion

How the values were obtained:
[1] = molecular target: B1; assay: yeast two-hybrid, B42-NIF-1 (full-length) against LexA full-length cTRα
Description: To examine for this possibility, the interaction of B42-NIF-1 (full-length), conditionally expressed from pJG4-5, was studied with LexA fusions of nuclear receptor LBDs (cTRα, ERa, RXRα, GR, RARα, and PPARα) in yeast, as shown in FIG. 7. In addition, a LexA-fusion of full-length cTRα was also tested against B42-NIF-1 (full-length) and gave similar results as with the cTRα LBD. […] To document that the LexA-LBD fusions were expressed and responded to ligand in yeast, similar studies were carried out with B42-NRC.

[2] = molecular target: T1, LexA-NRC-b (LexA DBD fused to NRC amino acids 849-2063), bait of the two-hybrid screen (UniProt P0A7C2 1-202; Q14686 849-2063); assay: yeast two-hybrid, LexA-NRC fusions against B42-NIF-1 constructs (FIG. 6A)
T1 construct: domain: LexA DBD;range 849-2063
Source text: Cell. Biol. 20:5048-5063 (2000), which is hereby incorporated by reference in its entirety). The yeast strain EGY48 harboring the LacZ reporter pSH1 8-34 (Gyuris et al., “Cdi1, A Human G1 and S Phase Protein Phosphatase that Associates with Cdk2,” Cell 75:791-803 (1993), which is hereby incorporated by reference in its entirety), and pEG202ΔPL-NRC-b was transformed with the GH4C1 pJG4-5 cDNA library. Transformants were directly screened on X-gal SD-galactose-raffinose plates lacking trp, ura, his, and leu. Putative positive clones were further purified on trp⁻, ura⁻, his⁻, and leu⁻ SD-galactose-raffinose plates. The purified clones were plated on SD-dextrose/trp⁻, ura^{-,} his⁻ plates to repress the expression of cDNAs from pJG4-5. Galactose-inducible interactions were verified upon replica plating each clone on trp⁻, ura⁻, his⁻, leu⁻ X-gal SD-galactose-raffinose and trp⁻, ura⁻, his⁻ X-gal SD-dextrose plates. […] The putative cDNAs from positive clones were further verified against several different baits. The positive interactors were then sequenced and subjected to restriction digestion, size determination, and further analysis.
Various regions of NRC were expressed as LexA fusions in yeast (designated as rows “a-g” in FIG. 6A) and their interaction compared with full-length NIF-1, NIF-2, and various deletions of NIF-1 conditionally expressed from pJG4-5. […]

Binder	binding result [1]	binding result [2]
LexA-fusion of full-length cTRα (receptor, UniProt P0A7C2 1-202, looked up, domain: LexA DBD;mature) MKALTARQQEVFDLIRDHISQTGMPPTRAEIAQRLGFRSPNAAEEHLKALARKGVIEIVSGASRGIRLLQEEEEGLPLVGRVAAGEPLLAQQHIEGHYQVDPSLFKPNADFLLRVSGMSMKDIGIMDGDLLAVHKTQDVRNGQVVVARIDDEVTVKRLKKQGNKVELLPENSEFKPIVVDLRQQSFTIEGLAVGVIRNGDWLMEQKPSTLDPLSEPEDTRWLDGKRKRKSSQCLVKSSMSGYIPSYLDKDEQCVVCGDKATGYHYRCITCEGCKGFFRRTIQKNLHPTYSCKYDGCCVIDKITRNQCQLCRFKKCISVGMAMDLVLDDSKRVAKRKLIEENRERRRKEEMIKSLQHRPSPSAEEWELIHVVTEAHRSTNAQGSHWKQKRKFLPEDIGQSPMASMPDGDKVDLEAFSEFTKIITPAITRVVDFAKKLPMFSELPCEDQIILLKGCCMEIMSLRAAVRYDPESETLTLSGEMAVKREQLKNGGLGVVSDAIFDLGKSLSAFNLDDTEVALLQAVLLMSSDRTGLICVDKIEKCQETYLLAFEHYINYRKHNIPHFWPKLLMKVTDLRMIGACHASRFLHMKVECPTELFPPLFLEVFEDQEV	no binding	
B1		binds

Source: US20040175720A1 (NEW YORK UNIVERSITY, published 2004)
